Reference: patent US20110217237A1 (AbbVie / Abbott, published 2011)
Residue numbers refer to the chain shown, from its start.

B1: h38H12.11 (antibody, V domains shown)
VH: EVQLVESGGGVVQPGRSLRLSCAASGFTFSNYGMYWVRQAPGKGLEWVAFISHGGGITYYRDSVKGRFTISRDNSKNTLYLQMNSLRAEDTAVYYCAALNWELGIDYWGQGTMVTVSS
VL: DIQMTQSPSSLSASVGDRVTITCRASEDIYSNLAWYQQKPGKAPKLLIYAANRLQDGVPSRFSGSGSGTDYTLTISSLQPEDFATYYCLQGSKFPLTFGQGTKLEIKR
notes: humanized IgG; also called VH.1b/VL.1b 38H12
B2: h38H12.5 (antibody, V domains shown)
VH: B1 VH with V37I, N77S, Y95H
VL: B1 VL with Y71F
notes: humanized IgG; also called VH.1a/VL.1 38H12
B3: h38H12.6 (antibody, V domains shown)
VH: B1 VH with V37I, N77S, Y95H
VL: B1 VL with Q38K, A43S, Y87F
notes: humanized IgG; also called VH.1a/VL.1a 38H12
B4: h38H12.9 (antibody, V domains shown)
VH: B1 VH
VL: B1 VL with Y71F
notes: humanized IgG; also called VH.1b/VL.1 38H12
B5: h38H12.10 (antibody, V domains shown)
VH: B1 VH
VL: B1 VL with Q38K, A43S, Y87F
notes: humanized IgG; also called VH.1b/VL.1a 38H12
B6: h38H12.13 (antibody, V domains shown)
VH: B1 VH with V11L, R16G, V37I, N77S, Y95H
VL: B1 VL with Y71F
notes: humanized IgG; also called VH.2a/VL.1 38H12
B7: h38H12.14 (antibody, V domains shown)
VH: B1 VH with V11L, R16G, V37I, N77S, Y95H
VL: B1 VL with Q38K, A43S, Y87F
notes: humanized IgG; also called VH.2a/VL.1a 38H12
B8: h38H12.15 (antibody, V domains shown)
VH: B1 VH with V11L, R16G, V37I, N77S, Y95H
VL: B1 VL
notes: humanized IgG; also called VH.2a/VL.1b 38H12
B9: h38H12.7 (antibody, V domains shown)
VH: B1 VH with V37I, N77S, Y95H
VL: B1 VL
notes: humanized IgG; also called VH.1a/VL.1b 38H12
B10: h38H12.12 (antibody, V domains shown)
VH: B1 VH
VL: EIVMTQSPATLSVSPGERATLSCRASEDIYSNLAWYQKKPGQSPRLLIYAANRLQDGVPARFSGSGSGTEYTLTISSLQSEDFAVYFCLQGSKFPLTFGQGTKLEIKR
notes: humanized IgG; also called VH.1b/VL.2a 38H12
B11: h38H12.8 (antibody, V domains shown)
VH: B1 VH with V37I, N77S, Y95H
VL: B10 VL
notes: humanized IgG; also called VH.1a/VL.2a 38H12
B12: h38H12.16 (antibody, V domains shown)
VH: B1 VH with V11L, R16G, V37I, N77S, Y95H
VL: B10 VL
notes: humanized IgG; also called VH.2a/VL.2a 38H12

Columns and labels:
[1] = target: T1, human DLL4 extracellular domain (human, UniProt Q9NR61 27-529); experiment: competition ELISA vs Notch-1 Fc
T1 construct: purified recombinant ECD; biotin-labelled or 6xHis-tagged depending on the assay; also called huDLL4 ECD; hu DLL4 ECD
Protocol: Plates were then washed 3 times with wash buffer (PBS, 0.05% Tween-20) and blocked with 200 μl/well blocking buffer (D-PBS, 1% BSA, 1 mM CaCl₂, 0.05% Tween-20) for 1 hour at 25° C. While blocking, biotin labeled DLL4 extracellular domain (14 nM) was mixed with antibody (30 pM-66 nM, 3-fold serial dilution in blocking buffer) for 1 hour at 25° C. with shaking. Assay plates were washed after blocking, and incubated with DLL4/antibody mixtures (100 μl/well, 1 hour at 25° C. with shaking). Plates were washed again and 100 μl/well streptavidin conjugated with HRP (Fitzgerald #65R-S104PHRPx, diluted 1:5,000 in blocking buffer) was added for 1 hour at 25° C. with shaking. After a final wash, plates were developed using 100 μl/well substrate (TMB Sigma #T8665), and the reaction was stopped using 100 μl/well 1N HCl, and the absorbance was read at 450 nm. Data were analyzed using Graphpad Prism software and IC₅₀ values were reported as the concentration of antibody to achieve 50% reduction of DLL4 bound to Notch1.
Purified variants were further characterized in human Notch-1 competition ELISAs (Example 1.4), which used a format of plating Notch-1 Fc onto ELISA plates and pre-incubating biotinylated human DLL4 plus titrated antibody. Signal was assessed by free biotinylated DLL4 binding to Notch-1 Fc.

[2] = target: T1, human DLL4 extracellular domain; experiment: SPR (Biacore)
Protocol: Binding of DLL4 antibodies to a purified recombinant DLL4 extracellular domain (ECD) was determined by surface plasmon resonance-based measurements with a Biacore® instrument (either a Biacore 2000, Biacore 3000, or Biacore T100; GE Healthcare, Piscataway, N.J., US) using running buffer HBS-EPB (10 mM HEPES [pH 7.4], 150 mM NaCl, 3 mM EDTA, 0.1 mg/ml BSA and 0.005% surfactant P20) at 25° C. For example, approximately 9000 RU of goat anti-human Fc specific polyclonal antibody (Thermo Fisher Scientific Inc., Rockford, Ill., US) diluted in 10 mM sodium acetate (pH 4.5) is directly immobilized across a CMS research grade biosensor chip using a standard amine coupling kit according to manufacturer's instructions and procedures at 25 μg/ml. Unreacted moieties on the biosensor surface were blocked with ethanolamine. For kinetic analysis, rate equations derived from the 1:1 Langmuir binding model were fitted simultaneously to multiple antigen injections (using global fit analysis) with the use of Scrubber 2 (BioLogic Software), Biacore Biaevaluation 4.0.1 software or Biacore T100 Evaluation software. Purified antibodies were diluted in running buffer for capture across goat anti-human Fc reaction surfaces. Antibodies to be captured as a ligand (1 μg/ml) were injected over reaction matrices at a flow rate of 10 μl/min. During the assay, all measurements were referenced against the capture surface alone (i.e., with no captured anti-DLL4 antibody). […] The equilibrium dissociation constant KD (M) of the reaction between antibodies and the target antigen was then calculated from the kinetic rate constants by the following formula: KD=Koff/Kₒₙ. Binding was recorded as a function of time and kinetic rate constants were calculated. In this assay, on-rates as fast as 10⁶ M⁻¹s⁻¹ and off-rates as slow as 10⁻⁶ s⁻¹ could be measured.
The good binder variants, as determined by binding ELISA, were assessed by Biacore (Example 1.1) concurrently with cell based assay screens.

[3] = target: T1, human DLL4 extracellular domain; experiment: capture ELISA, biotin-huDLL4 ECD
[4] = target: T2, human DLL4, full length, on cells (human, UniProt Q9NR61 27-685); experiment: cell-based or functional assay
[5] = target: T2, human DLL4, full length, on cells; experiment: FACS, DLL4 cells
Protocol: Stable cell lines overexpressing cell-surface DLL4 were harvested from tissue culture flasks, washed four times and resuspended in phosphate buffered saline (PBS) containing 1% bovine serum albumin and 1 mM CaCl₂ (FACS buffer). 1.5×10⁵ cells were incubated with antibodies at various concentrations in FACS buffer for 60 minutes on ice. […] Following an incubation on ice (4° C., 60 minutes), cells were washed three times and resuspended in FACS buffer. Fluorescence was measured using a Becton Dickinson FACSCalibur-HTS (Becton Dickinson, San Jose, Calif., US). Data were analyzed using Graphpad Prism software and EC₅₀ values were reported as the concentration of antibody to achieve 50% of maximal DLL4 antibodies binding to DLL4 expressing cells.
The good binder variants, as determined by binding ELISA, were assessed by Biacore (Example 1.1) concurrently with cell based assay screens. The KD for human DLL4 was similar for all variants (see, Biacore, KD in Table 18, below).

T2 sequence (Q9NR61 27-685 limits assumed): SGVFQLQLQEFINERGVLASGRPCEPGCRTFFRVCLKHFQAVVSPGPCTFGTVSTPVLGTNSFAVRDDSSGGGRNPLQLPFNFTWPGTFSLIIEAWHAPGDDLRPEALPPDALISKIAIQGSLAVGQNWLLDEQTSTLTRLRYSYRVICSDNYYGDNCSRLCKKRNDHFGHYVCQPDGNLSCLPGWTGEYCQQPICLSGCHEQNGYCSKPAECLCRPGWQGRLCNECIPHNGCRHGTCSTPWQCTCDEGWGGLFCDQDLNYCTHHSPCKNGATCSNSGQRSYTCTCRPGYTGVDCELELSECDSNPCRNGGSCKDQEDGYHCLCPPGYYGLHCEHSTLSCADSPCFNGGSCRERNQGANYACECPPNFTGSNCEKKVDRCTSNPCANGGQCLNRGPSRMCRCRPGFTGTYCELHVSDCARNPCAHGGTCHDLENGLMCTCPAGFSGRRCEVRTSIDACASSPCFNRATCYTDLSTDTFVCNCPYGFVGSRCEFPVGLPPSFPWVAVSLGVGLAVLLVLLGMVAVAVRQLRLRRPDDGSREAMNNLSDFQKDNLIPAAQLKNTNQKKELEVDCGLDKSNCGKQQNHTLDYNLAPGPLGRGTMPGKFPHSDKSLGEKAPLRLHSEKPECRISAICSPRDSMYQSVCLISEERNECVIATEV
T1 sequence (Q9NR61 27-529 limits assumed): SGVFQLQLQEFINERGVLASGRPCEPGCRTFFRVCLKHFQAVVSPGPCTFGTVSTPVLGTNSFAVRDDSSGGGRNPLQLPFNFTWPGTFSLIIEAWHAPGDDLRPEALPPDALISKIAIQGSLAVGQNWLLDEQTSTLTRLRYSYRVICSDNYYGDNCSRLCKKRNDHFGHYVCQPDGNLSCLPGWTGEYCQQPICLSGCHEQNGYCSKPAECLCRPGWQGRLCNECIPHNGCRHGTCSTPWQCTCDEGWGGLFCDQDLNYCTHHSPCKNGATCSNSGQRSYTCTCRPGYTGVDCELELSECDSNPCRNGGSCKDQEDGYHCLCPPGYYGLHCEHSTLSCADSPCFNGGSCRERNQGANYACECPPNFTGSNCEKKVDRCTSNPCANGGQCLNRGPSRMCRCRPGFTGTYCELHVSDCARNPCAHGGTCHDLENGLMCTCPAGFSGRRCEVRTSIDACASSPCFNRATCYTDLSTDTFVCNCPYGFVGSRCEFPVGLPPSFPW

EC50 [1] [nM] | Kd [2] [nM] | EC50 [3] [nM] | Notch Reporter Assay EC50 [4] [nM] | EC50 [5] [nM] | Binder
3.8 | 0.554 | 0.126 | 0.657 | 2.48 | B1
14.8 | 0.401 | 0.202 | 7.31 | 77.2 | B2
27 | 0.434 | 0.158 | 6.32 | 12.3 | B3
4.16 | 0.986 | 0.116 | 1.44 | 3.71 | B4
3.9 | 0.578 | 0.123 | 0.786 | 2.49 | B5
5.29 | 0.507 | 0.153 | 0.794 | 2.56 | B6
5.84 | 0.303 | 0.146 | 1.01 | 1.04 | B7
5.71 | 0.355 | 0.0904 | 0.837 | 2.37 | B8
12.5 | 0.34 | 0.18 | 2.6 | 19.1 | B9
3.23 | 0.819 | 0.165 | 1.06 | 1.48 | B10
8.31 | 0.397 | 0.197 | 5.56 | 20 | B11
3.77 | 0.392 | 0.17 | 1.19 | 2.91 | B12
